In patent US5536822A, “γ-phosphate linked adenosine 5' triphosphate sepharose” (University of Virginia Alumni Patents Foundation, priority 1994, dated 1996):

Substrate: Nc1ncnc2c1ncn2[C@@H]1O[C@H](COP(=O)(O)OP(=O)(O)OP(=O)(O)O)[C@@H](O)[C@H]1O
Test: Inhibition constant of the ATP derivative / Km for ATP, p42^mapk assay
Format: biochemical
Details: other: p42^mapk; pH 7.4
From the text: [γ-^32 P] ATP was synthesized according to the procedure set forth in Johnson et al., Advances in Cyclic Nucleotide Research, 10:135-167 (1979). The catalytic subunit of cyclic-AMP-dependent protein kinase was purchased from Promega. p60^c-arc was obtained from the Department of Microbiology, University of Virginia. Recombinant p42^mapk was purified as described in Haystead et al., (1992) FEBS Lett., 306:17-22. STE7 antibody was obtained from the University of Vancouver, Canada.
The 42-kDa MAP kinase (p42^mapk) and MAPKK were assayed as described previously (Haystead et al. (1992) FEBS. Lett., 306:17-22). The cyclic-A kinase assays (30 μl) included 1 μg cyclic-A kinase, 2 mM Kemptide, 50 mM Hepes, pH 7.4, 1 mM dithiothreitol, 200 μM ATP, 5 mM MgCl2. […]
In order to assess the effectiveness of adenosine 5'-(γ-4-aminophenyl)triphosphate as an affinity ligand for protein kinases, the inhibition constants (Ki) of the derivative were determined for four different protein kinases, namely, p42^mapk, cyclic-A kinase, MAPKK and p60^c-arc (Table 1). […] This also facilitated comparisons for the relative binding constants determined with other ATP analogs (Flockhart et al. (1984) Eur. J. Biochem., 140:289-295; Hoppe et al. (1972) Eur. J. Biochem., 80:369-372; Taylor et al. (1990) Peptides and Protein Phosphorylation (Kemp et al.) pp 2-32, CRC Press).

B1: p42^mapk (Mus musculus) (protein)
chain: MAAAAAAGPEMVRGQVFDVGPRYTNLSYIGEGAYGMVCSAYDNLNKVRVAIKKISPFEHQTYCQRTLREIKILLRFRHENIIGINDIIRAPTIEQMKDVYIVQDLMETDLYKLLKTQHLSNDHICYFLYQILRGLKYIHSANVLHRDLKPSNLLLNTTCDLKICDFGLARVADPDHDHTGFLTEYVATRWYRAPEIMLNSKGYTKSIDIWSVGCILAEMLSNRPIFPGKHYLDQLNHILGILGSPSQEDLNCIINLKARNYLLSLPHKNKVPWNRLFPNADSKALDLLDKMLTFNPHKRIEVEQALAHPYLEQYYDPSDEPIAEAPFKFDMELDDLPKEKLKELIFEETARFQPGYRS
notes: made in house
Km: 7.5 ± 0.71 µM
